From US8138151B2, “Peptides” (Faron Ventures Oy, priority 2006, dated 2012)
“Also recorded” adds a separate entry of the source.

Legend:
[1] = target: T1, purified recombinant VAP-1 (Homo sapiens, UniProt Q16853); assay: ELISA binding of biotinylated synthetic peptides to immobilized VAP-1; conditions: wells coated with VAP-1, BSA as negative control; streptavidin-HRP chemiluminescence detection
T1 sequence (Q16853 1-763): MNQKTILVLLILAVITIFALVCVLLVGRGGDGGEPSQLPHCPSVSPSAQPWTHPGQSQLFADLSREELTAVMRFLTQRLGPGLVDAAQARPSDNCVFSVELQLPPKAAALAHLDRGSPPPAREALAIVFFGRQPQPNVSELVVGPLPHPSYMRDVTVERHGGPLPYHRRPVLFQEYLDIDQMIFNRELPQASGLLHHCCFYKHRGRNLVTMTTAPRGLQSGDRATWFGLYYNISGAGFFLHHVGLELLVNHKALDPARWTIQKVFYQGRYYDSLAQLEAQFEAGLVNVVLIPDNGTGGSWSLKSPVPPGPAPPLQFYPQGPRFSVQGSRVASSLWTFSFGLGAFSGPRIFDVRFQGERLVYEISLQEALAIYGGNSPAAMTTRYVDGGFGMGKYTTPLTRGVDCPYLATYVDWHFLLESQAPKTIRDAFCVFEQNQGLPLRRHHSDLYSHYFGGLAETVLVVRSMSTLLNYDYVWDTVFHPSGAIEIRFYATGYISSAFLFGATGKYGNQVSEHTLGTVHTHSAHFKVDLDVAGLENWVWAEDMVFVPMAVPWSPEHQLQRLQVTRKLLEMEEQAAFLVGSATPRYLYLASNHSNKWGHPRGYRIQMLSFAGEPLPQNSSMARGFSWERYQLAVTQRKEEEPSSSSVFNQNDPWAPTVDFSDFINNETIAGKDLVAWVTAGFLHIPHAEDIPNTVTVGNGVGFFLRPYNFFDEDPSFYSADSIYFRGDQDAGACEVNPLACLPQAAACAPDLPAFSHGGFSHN
Description: Binding of peptides to VAP-1. VAP-1 and BSA as a negative control were immobilized in wells of Nunc Maxisorp 96-well ELISA plate overnight at 4° C., blocked with PBS/3% BSA for 1 h at 37° C. and incubated with biotinylated peptides (10 micrograms/ml or 100 micrograms/ml) for 2 h at room temperature. The wells were washed with PBS/0.1% Tween, incubated with HRP conjugated streptavidin for 1 h at room temperature and after washing a BM chemiluminescence ELISA substrate was added. Luminescence was measured with a luminometer (Tecan Ultra, Tecan, Zürich, Switzerland).

recombinant VAP-1 = target: T2, recombinant VAP-1 (Homo sapiens, UniProt Q16853); assay: ELISA binding of Siglec-10-Ig-chimera to recombinant VAP-1; conditions: chimera immobilized via anti-human IgG; VAP-1 detected with biotinylated TK-8-18
T2 sequence (Q16853 1-763): T1 sequence (Q16853 1-763)
Description: Siglec 10-Fc chimera binding to VAP-1. Anti-human IgG (Fc specific) antibody was coated onto Nunc Maxisorp wells overnight at 4° C. After blocking with PBS/2% BSA, Siglec-10-Ig-chimera (1 microgram/ml) was immobilized to wells via its Fc-tail for 2 h at room temperature and thereafter, recombinant VAP-1 ([…] incubated in wells for 2 h at room temperature. After washing the wells with PBS/0.1% Tween, biotinylated anti-human VAP-1 antibody (TK-8-18) was incubated in the wells for 1 h at room temperature and after that, the wells were incubated with HRP conjugated streptavidin for 1 h at room temperature. After washing the wells, a BM chemiluminescence ELISA substrate was added to the wells and luminescence was measured with Tecan luminometer.

[2] = target: T3, VAP-1 expressed on the cell surface (CHO-VAP-1 cells) (Homo sapiens, UniProt Q16853); assay: Epitope analysis: competitive surface staining of CHO-VAP-1 cells with anti-VAP-1 mAb, flow cytometry; type: cell-based; conditions: cells expressing VAP-1 first incubated with 10 micrograms/ml protein, then anti-VAP-1 (JG2.10)
T3 construct: expressed in transfected cells; host or cells: CHO cells (CHO-VAP-1)
T3 sequence (Q16853 1-763): T1 sequence (Q16853 1-763)
Description: Surface stainings of CHO-VAP-1 and CHO-mock cells were performed using anti-VAP-1 (JG2.10) and a negative control (9B5) mAbs. Competitive stainings were done in the presence of 10 micrograms/ml either human Ig or Siglec-10-Ig. Alexa546-conjugated goat anti-rat IgG was used as the secondary reagent. All cells were analyzed using FACSCalibur and Cellquest software.

[3] = target: T4, VAP-1 (SSAO enzymatic activity) (Homo sapiens, UniProt Q16853); assay: Isotopic enzyme assay of SSAO activity of VAP-1 (14C-benzylamine, CHO-VAP-1 cell lysate); type: biochemical; conditions: 30 min preincubation with CHO-VAP-1 lysate
T4 construct: expressed in transfected cells; host or cells: CHO cells (CHO-VAP-1)
T4 sequence (Q16853 1-763): T1 sequence (Q16853 1-763)
Description: Semicarbazide sensitive mine oxidase (SSAO) enzymatic activity of VAP-1 after interaction with Siglec-10 was determined radiochemically. Briefly, 14-C labeled benzylamine (a model substrate for SSAO) was used as the substrate. The assay was performed at 37° C. for 120 minutes in a final volume of 400 microliters 0.1 mM Krebs-Ringer phosphate glucose buffer (pH 7.35) containing CHO-VAP-1 cell lysate and 5 microM benzylamine with tracer ^14C benzylamine (40 000 dpm) in the presence of 1 mM clorgyline (a MAO inhibitor). In the inhibitory studies, the lysate was preincubated 30 minutes with 10 micrograms/ml or 70 micrograms/ml Siglec-10-Ig-chimera or 1 mM semicarbazide before adding the benzylamine. Catalytic reaction was stopped with citric acid, and the aldehyde reaction products were extracted from the analyzed mixture into toluene containing 0.35 g/L diphenyloxazole. The amount of 14C-labeled benzaldehyde was quantified by scintillation counting using a beta-counter Wallac-1409 (Turku, Finland), and the activity of the enzyme was expressed as picomoles of benzaldehyde formed by milliliter of lysate per hour.

## CWSFRNRVLC (Phage display library peptide) [peptide P2]
[1]
  Binding of biotinylated synthetic peptide to VAP-1 (ELISA): shown to bind to VAP-1; also recorded: efficiently bound to purified recombinant VAP-1

## CATLSWVLQNRVLSSC (listed as Homo sapiens) [P3, longer peptide matching Siglec-10 residues 284-297, cysteines added to both ends]
[1]
  Binding of biotinylated synthetic peptide to VAP-1 (ELISA): bound specifically to wells coated with purified VAP-1 in comparison to BSA

## Siglec-10-Ig-chimera: Siglec-10 fused to an Ig Fc-tail, counter-receptor for VAP-1
Recombinant VAP-1
  Interaction of Siglec-10-Ig-chimera with purified VAP-1 (ELISA): interacts with VAP-1
[2]
  Cells positive for anti-VAP-1 antibody staining: 43.7%
[3]; 10 μg/ml (~7 nM)
  Inhibition of SSAO activity of VAP-1: 20%
[3]; 70 μg/ml (~50 nM)
  Inhibition of SSAO activity of VAP-1: 30%

## CVKWRGVVVC (Phage display library peptide) [peptide P1]
[1]
  Binding of biotinylated synthetic peptide to VAP-1 (ELISA): shown to bind to VAP-1; also recorded: efficiently bound to purified recombinant VAP-1

## CARLSLSWRGLTLCPS (listed as Homo sapiens) [P5]
[1]
  Binding of biotinylated synthetic peptide to VAP-1 (ELISA): bound specifically to wells coated with purified VAP-1 in comparison to BSA
